How the values were obtained:
Conditions in all cases: protein: recombinant; tags: N-terminal His6; label: 5' biotin; hairpin
U1A Asp92Glu = U1A Asp92Glu (UniProt P09012 1-101, D92E); experiment: SPR; ka 4e7 M-1s-1; kd 9e-4 s-1; Biacore 2000 SPR; running buffer with 125 ug/ml yeast tRNA and 62.5 ug/ml acetylated BSA; buffer, salt, pH and temperature as previously described (not given in material)
U1A Asp92Phe = U1A Asp92Phe (UniProt P09012 1-101, D92F); experiment: SPR; ka 6e7 M-1s-1; kd 1.0e-3 s-1; Biacore 2000 SPR; running buffer with 125 ug/ml yeast tRNA and 62.5 ug/ml acetylated BSA; buffer, salt, pH and temperature as previously described (not given in material)
Chain of U1A Asp92Phe (P09012 1-101 D92F): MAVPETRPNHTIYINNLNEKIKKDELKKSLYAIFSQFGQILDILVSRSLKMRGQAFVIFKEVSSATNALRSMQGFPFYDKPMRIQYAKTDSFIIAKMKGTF

U1A90 = U1A90 (UniProt P09012 1-90); experiment: SPR; ka 2.3e8 M-1s-1; kd 1.0 s-1; Biacore 2000 SPR; running buffer with 125 ug/ml yeast tRNA and 62.5 ug/ml acetylated BSA; buffer, salt, pH and temperature as previously described (not given in material)
Chain of U1A90 (P09012 1-90): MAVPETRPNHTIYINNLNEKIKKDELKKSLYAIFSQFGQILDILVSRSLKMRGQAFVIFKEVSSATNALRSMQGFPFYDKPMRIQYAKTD

U1A95 = U1A95 (UniProt P09012 1-95); experiment: SPR; ka 2.3e7 M-1s-1; kd 1.8e-2 s-1; Biacore 2000 SPR; running buffer with 125 ug/ml yeast tRNA and 62.5 ug/ml acetylated BSA; buffer, salt, pH and temperature as previously described (not given in material)
Chain of U1A95 (P09012 1-95): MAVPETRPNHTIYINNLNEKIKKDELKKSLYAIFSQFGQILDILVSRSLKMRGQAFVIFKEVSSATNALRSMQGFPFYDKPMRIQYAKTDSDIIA

U1A Thr11Ala = U1A Thr11Ala (UniProt P09012 1-101, T11A); experiment: SPR; ka 7.1e7 M-1s-1; kd 1.5e-2 s-1; Biacore 2000 SPR; running buffer with 125 ug/ml yeast tRNA and 62.5 ug/ml acetylated BSA; buffer, salt, pH and temperature as previously described (not given in material)
Chain of U1A Thr11Ala (P09012 1-101 T11A): as the sequence (P09012 1-101 D92F) above, with T11A, F92D counted along it

U1A Asp92Ala = U1A Asp92Ala (UniProt P09012 1-101, D92A); experiment: SPR; ka 3.3e7 M-1s-1; kd 1.1e-3 s-1; Biacore 2000 SPR; running buffer with 125 ug/ml yeast tRNA and 62.5 ug/ml acetylated BSA; buffer, salt, pH and temperature as previously described (not given in material)
Chain of U1A Asp92Ala (P09012 1-101 D92A): as the sequence (P09012 1-101 D92F) above, with F92A counted along it

U1A Ile94Pro = U1A Ile94Pro (UniProt P09012 1-101, I94P); experiment: SPR; ka 1.2e8 M-1s-1; kd 6e-2 s-1; Biacore 2000 SPR; running buffer with 125 ug/ml yeast tRNA and 62.5 ug/ml acetylated BSA; buffer, salt, pH and temperature as previously described (not given in material)
Chain of U1A Ile94Pro (P09012 1-101 I94P): as the sequence (P09012 1-101 D92F) above, with F92D, I94P counted along it

Chain of U1A Asp92Glu (P09012 1-101 D92E): as the sequence (P09012 1-101 D92F) above, with F92E counted along it

B1: U1hpII (structured_RNA)
RNA: AGCUUAUCCAUUGCACUCCGGAUGAGCU
Kd (U1A Asp92Glu): 0.02 nM | Kd (U1A Asp92Phe): 0.02 nM | Kd (U1A90): 4.5 nM | Kd (U1A95): 0.82 nM | Kd (U1A Thr11Ala): 0.21 nM | Kd (U1A Asp92Ala): 0.041 nM | Kd (U1A Ile94Pro): 0.5 nM

— publication PMC3737524, “The role of the C-terminal helix of U1A protein in the interaction with U1hpII RNA”
